Experiment [1] concerns CIP.choline-phosphate cytidylyltransferase (CT). The following applies: administration of L-cycloserine; cited from earlier work.
Experiment [2] concerns the target mouse Sptlc2 (serine palmitoyl-CoA transferase subunit 2) (mouse) (UniProt P97363). The experiment can be described thus: cell-based or functional assay.
The target of experiment [3] is mouse Sptlc1 (serine palmitoyl-CoA transferase subunit 1) (mouse) (UniProt O35704). The experiment can be described thus: cell-based or functional assay.

`N[C@@H]1CON=C1O` [L-cycloserine]: the “stimulation of CT activity” value in experiment [1] is recorded as 74%.
In the case of “mouse Sptlc1 (serine palmitoyl-CoA transferase subunit 1) (from UniProt O35704 1-473) (enzyme)”, in experiment [2], the decrease in Sptlc1 protein mass in Sptlc2+/- mouse liver against WT (Western blot of liver homogenate) worked out at 70%.
Regarding “mouse Sptlc2 (serine palmitoyl-CoA transferase subunit 2) (from UniProt P97363 1-560) (enzyme)”, in experiment [3], the decrease in Sptlc2 protein mass in Sptlc1+/- mouse liver against WT (Western blot of liver homogenate) came to 53%.

Source of the values: patent US20080249174A1, “Animal Model for Studying Atherosclerotic Lesions” (THE RESEARCH FOUNDATION OF STATE UNIVERSITY OF NEW YORK, priority 2005, published 2008).
